In paper PMC12820186:

T1: CsEIN3 DNA-binding domain (CsEIN3-BD) (cucumber, UniProt A0A0A0LXB4 1-412)
T1 sequence: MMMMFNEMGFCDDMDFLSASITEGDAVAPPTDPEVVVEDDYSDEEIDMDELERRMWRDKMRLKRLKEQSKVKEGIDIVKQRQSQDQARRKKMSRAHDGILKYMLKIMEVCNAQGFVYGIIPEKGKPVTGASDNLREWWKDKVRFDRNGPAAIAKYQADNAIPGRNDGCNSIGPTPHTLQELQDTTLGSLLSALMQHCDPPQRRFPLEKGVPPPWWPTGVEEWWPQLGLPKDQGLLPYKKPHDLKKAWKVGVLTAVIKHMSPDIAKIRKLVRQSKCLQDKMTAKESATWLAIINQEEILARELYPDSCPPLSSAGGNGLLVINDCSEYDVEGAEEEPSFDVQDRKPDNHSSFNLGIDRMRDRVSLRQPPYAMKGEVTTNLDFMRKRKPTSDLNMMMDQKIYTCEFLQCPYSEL

B1: proCsCYP707A4 p3 probe (dsDNA)
DNA 1: TTGCCAACTAATTTCATGTTCAATCAATGAAAGTGA
DNA 2: TCACTTTCATTGATTGAACATGAAATTAGTTGGCAA
B2: proCsCYP707A4 p2 probe (dsDNA)
DNA 1: CGTCGTGTGAAGTACTTCATGGAGACGAATAAAAG
DNA 2: CTTTTATTCGTCTCCATGAAGTACTTCACACGACG
B3: proCsCYP707A4 p4 probe (dsDNA)
DNA 1: GCGAACGTCGTGTGAAGTACTTCATGGAGACGAATA
DNA 2: TATTCGTCTCCATGAAGTACTTCACACGACGTTCGC

Target: T1, CsEIN3 DNA-binding domain (CsEIN3-BD)
Test: EMSA

Binding result, no binding:
B1
B2
B3
